± gives the uncertainty stated by the source.
B1: Bromodomain adjacent to zinc finger domain protein 2B, residues 1927 to 1982; numbered along this chain, Q9UIF8 (parent)
chain: KSIMKVYCQICRKGDNEELLLLCDGCDKGCHTYCHRPKITTIPDGDWFCPACIAKA
B2: E3 ubiquitin-protein ligase TRIM36, residues 208 to 252; numbered along this chain, Q9NQ86 (parent)
chain: KILMCPEHETERINMYCELCRRPVCHLCKLGGNHANHRVTTMSSA

Variants of: B1
Test: abundance fitness (aPCA) (normalised: wild type 0, dead -1); higher = more abundant; growth selection in yeast, the domain comes from the species named
Conditions: Homo sapiens

Abundance fitness: each site, then its substitutions
F48: K 0.085 ± 0.14; Y 0.039 ± 0.16; I 0.07 ± 0.2; V 0.044 ± 0.089; S 0.037 ± 0.08; A 0.021 ± 0.089; E -0.028 ± 0.1; N 0.192 ± 0.15; M -0.01 ± 0.14; T 0.008 ± 0.12; Q -0.04 ± 0.12; C 0.037 ± 0.12; P -0.132 ± 0.12; W -0.07 ± 0.098; L -0.064 ± 0.097; R 0 ± 0.069; G -0.06 ± 0.069; H -0.029 ± 0.15
I53: D -0.006 ± 0.12; R -0.087 ± 0.078; F -0.072 ± 0.24; L 0.043 ± 0.088; G -0.03 ± 0.065; A -0.037 ± 0.074; K -0.089 ± 0.14; T -0.225 ± 0.1; P 0.118 ± 0.15; S -0.033 ± 0.092; H -0.083 ± 0.15; E 0.016 ± 0.084; W -0.179 ± 0.1; Y -0.026 ± 0.16; M 0.021 ± 0.11; C -0.051 ± 0.12; V -0.004 ± 0.07; N -0.242 ± 0.15
D46: M -0.218 ± 0.13; S -0.006 ± 0.096; W -0.582 ± 0.16; Y -0.375 ± 0.17; P 0.058 ± 0.12; Q 0.117 ± 0.14; V -0.046 ± 0.088; T -0.094 ± 0.096; L -0.233 ± 0.099; N -0.009 ± 0.12
C52: S -0.652 ± 0.091; F -0.736 ± 0.21; G -0.544 ± 0.067; H -0.392 ± 0.17; N -0.523 ± 0.19; E -0.581 ± 0.1; W -0.971 ± 0.12; P -0.833 ± 0.16; L -0.891 ± 0.12; A -0.661 ± 0.11; T -0.539 ± 0.13; V -0.905 ± 0.13; R -0.581 ± 0.069; K -0.486 ± 0.15; Q -0.531 ± 0.15; D -0.43 ± 0.18; M -0.487 ± 0.26; Y -0.666 ± 0.13
A56: Q -0.176 ± 0.32; D -0.019 ± 0.2; S -0.317 ± 0.17; W -0.331 ± 0.33; C -0.211 ± 0.23; R 0.174 ± 0.23; G -0.364 ± 0.21; P -0.533 ± 0.26; T -0.155 ± 0.16; M -0.28 ± 0.36; V 0.045 ± 0.18
P50: G -0.235 ± 0.34; R 0.183 ± 0.35; A -0.074 ± 0.48; L -0.71 ± 0.4
K55: G 0.058 ± 0.48; C -0.154 ± 0.3; Q -0.171 ± 0.36
A51: S -0.024 ± 0.082; D 0.026 ± 0.12; Y -0.346 ± 0.21; E 0.028 ± 0.11; L -0.045 ± 0.086; C -0.124 ± 0.12; G 0.033 ± 0.069; Q -0.169 ± 0.15; K -0.162 ± 0.13; I -0.14 ± 0.2; T 0.016 ± 0.12; W -0.175 ± 0.1; H -0.214 ± 0.16; M 0.022 ± 0.11; R -0.087 ± 0.069; N -0.064 ± 0.17; F -0.385 ± 0.22; V -0.095 ± 0.094
W47: E -0.338 ± 0.092; K -0.127 ± 0.11; R -0.115 ± 0.073; D -0.15 ± 0.11; Q -0.203 ± 0.12; Y -0.165 ± 0.19; L -0.312 ± 0.083; F -0.345 ± 0.17; H -0.169 ± 0.22; C -0.287 ± 0.12; T -0.213 ± 0.1; P -0.165 ± 0.11; V -0.338 ± 0.091; I -0.092 ± 0.19; A -0.168 ± 0.087; N -0.186 ± 0.17; G -0.289 ± 0.072
A54: T -0.031 ± 0.1; V -0.053 ± 0.09; M -0.309 ± 0.19; H -0.164 ± 0.13; G -0.086 ± 0.072; E 0.113 ± 0.1; K -0.036 ± 0.12; D -0.062 ± 0.12; P 0.048 ± 0.1; W -0.229 ± 0.1; C -0.095 ± 0.15; L 0.032 ± 0.089; Y -0.102 ± 0.2; R -0.211 ± 0.073; Q 0.066 ± 0.11; S -0.082 ± 0.088; F -0.093 ± 0.14; I -0.265 ± 0.13; N -0.136 ± 0.17
C49: Q -0.959 ± 0.16; F -1.04 ± 0.28; W -0.932 ± 0.1; Y -1.11 ± 0.14; P -0.993 ± 0.16; A -0.82 ± 0.16; R -0.822 ± 0.073; V -1.03 ± 0.13; M -0.859 ± 0.17; I -0.859 ± 0.22; L -1.04 ± 0.13; G -0.788 ± 0.066; D -0.244 ± 0.16; K -0.83 ± 0.14; H -0.333 ± 0.21; N -0.816 ± 0.24; S -0.838 ± 0.092

Variants of: B2
Test: as above
Conditions: Homo sapiens

Abundance fitness of substitutions, site by site:
K1: C -0.573 ± 0.17; T -0.157 ± 0.065; G -0.273 ± 0.058; F -0.167 ± 0.097; S -0.396 ± 0.058; L -0.388 ± 0.092; I -0.291 ± 0.14; V -0.243 ± 0.078; M -0.277 ± 0.073; R -0.28 ± 0.062; A -0.25 ± 0.068; N -0.101 ± 0.11; H -0.283 ± 0.14; Q -0.236 ± 0.081

From the Human Domainome abundance scans (Beltran et al. 2025)
